Substrate: CC(=O)N[C@H]1[C@H](O[C@H]2[C@H](O)[C@@H](NC(C)=O)[C@@H](OP(=O)(O)OP(=O)(O)OCCC(C)CCCC(C)CCCC(C)CCCC(C)C)O[C@@H]2CO)O[C@H](CO)[C@@H](O[C@@H]2O[C@H](CO[C@H]3O[C@H](CO)[C@@H](O)[C@H](O)[C@@H]3O)[C@@H](O)[C@H](O)[C@@H]2O)[C@@H]1O
Test: UPLC-MS mannosyltransferase assay, nonlinear regression
Type: biochemical, Homo sapiens
Settings: 2 mM GDP-Man, 10 mM MgCl2, pH 6.0, 0.05% NP-40, 37 °C, 10 min, substrate range 8-200 μM, substrate not further purified

B1: hAlg2 (Trx-hAlg2) (Homo sapiens) (protein)
chain: MAEEQGRERDSVPKPSVLFLHPDLGVGGAERLVLDAALALQARGCSVKIWTAHYDPGHCFAESRELPVRCAGDWLPRGLGWGGRGAAVCAYVRMVFLALYVLFLADEEFDVVVCDQVSACIPVFRLARRRKKILFYCHFPDLLLTKRDSFLKRLYRAPIDWIEEYTTGMADCILVNSQFTAAVFKETFKSLSHIDPDVLYPSLNVTSFDSVVPEKLDDLVPKGKKFLLLSINRYERKKNLTLALEALVQLRGRLTSQDWERVHLIVAGGYDERVLENVEHYQELKKMVQQSDLGQYVTFLRSFSDKQKISLLHSCTCVLYTPSNEHFGIVPLEAMYMQCPVIAVNSGGPLESIDHSVTGFLCEPDPVHFSEAIEKFIREPSLKATMGLAGRARVKEKFSPEAFTEQLYRYVTKLLV
notes: N-terminal His6-Trx tag kept (pET32), expressed in E. coli Rosetta (DE3), HisTrap purified; about 57 kDa on SDS-PAGE
  Km: 136.7 ± 30.4 µM
  kcat: 1.05 ± 0.13 s⁻¹

Source: PMC8827073, “Topological and enzymatic analysis of human Alg2 mannosyltransferase reveals its role in lipid-linked oligosaccharide biosynthetic pathway” (Communications Biology, 2022)
